Literature values in publication PMC3417102.

How the values were obtained:
[1] = molecular target: tissue-type plasminogen activator (Homo sapiens) (UniProt P00750)
[2] = molecular target: plasminogen (Homo sapiens) (UniProt P00747)
[3] = molecular target: Glu-plasminogen (Homo sapiens) (UniProt P00747)

Sequence of UniProt P00750 (P00750 311-562): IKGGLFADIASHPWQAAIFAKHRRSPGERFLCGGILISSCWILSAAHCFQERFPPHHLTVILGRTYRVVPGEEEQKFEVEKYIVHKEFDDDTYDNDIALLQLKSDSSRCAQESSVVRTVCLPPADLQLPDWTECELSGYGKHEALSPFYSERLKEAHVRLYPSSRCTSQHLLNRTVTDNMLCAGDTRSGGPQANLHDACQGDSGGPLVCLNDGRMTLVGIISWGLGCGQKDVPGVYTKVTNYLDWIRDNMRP

| Kd [1] [nM] | Kd [2] [nM] | Kd [3] [nM] | Substance |
| --- | --- | --- | --- |
| 30 | 114 | – | Annexin A2 (from UniProt P07355) |
| – | – | 370 | beta2-glycoprotein I (nicked) (from UniProt P02749) |
